# Experimental data taken from patent CN112574305A (UNIV TSINGHUA RES INST SHENZHEN, dated 2021).
# B1: 抗ProBDNF抗体 (antibody, IgG2b, V domains shown)
# VH: QVQLQQSGPELVKPGASVTISCKTSAYGFSSSWMNWVKQRPGQGLEWIGRIYPGDGETNYNGKFMGKATLTADKSSNTVYMHLSSLTSVDSAVYFCTRRELVYWGQGTLVTVSA
# VL: DIVLTQSPASLAVSLGQRATISCRTSESVDTYGNSFIHWYQQKPGQPPKLLIYRASRLESGIPARFSGSGSRTDFTLTINPVEADDVATYYCQQSYEDPWTFGGGTKLEIK
# notes: Mouse hybridoma antibody, made recombinantly in 293 cells; also called 针对前体脑源性神经营养因子的抗体; 实施例2提供的纯化抗体
# Key:
# [1] = target: T1, ProBDNF; experiment: ELISA, OD450
# T1 sequence (peptide): CDQKVRPNEENNKDA
# [2] = target: T2, mBDNF (UniProt P23560 129-247, limits assumed); experiment: ELISA, mBDNF coated at 2 μg/ml, purified antibody added, OD450
# T2 construct: mature; also called 成熟BDNF
# T2 sequence (looked up): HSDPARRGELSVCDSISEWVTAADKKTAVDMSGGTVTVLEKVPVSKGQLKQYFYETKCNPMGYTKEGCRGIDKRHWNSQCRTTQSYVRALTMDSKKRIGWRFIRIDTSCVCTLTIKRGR
binder,measurement,setting,value
B1,抗原浓度 (lowest antigen concentration detected),[1],1.95 ng/mL
same,binding result,[2],no binding
